Target: T1, TIM-3 IgV domain (human) (human, UniProt Q8TDQ0 22-130)
T1 construct: also called IgV domain of TIM-3; human TIM-3 IgV
T1 sequence: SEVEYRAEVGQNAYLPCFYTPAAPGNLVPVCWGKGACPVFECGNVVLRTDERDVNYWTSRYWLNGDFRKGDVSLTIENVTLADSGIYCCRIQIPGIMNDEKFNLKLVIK
Assay: co-crystal X-ray structure
Description: To obtain the co-crystal structure of the TIM-3 IgV domain with antigen-binding fragments (Fabs), all proteins were expressed in mammalian cells and purified to homogeneity. Purified TIM-3 IgV domain and Fabs (one at a time) were incubated at a slight excess of IgV domain, followed by size exclusion purification of the complex. Crystallization of the complexes was performed at room temperature. The X-ray diffraction data was collected at the Stanford Synchrotron Radiation Lightsource (SSRL, Menlo Park, Calif., USA). Structures of the complexes were solved by molecular replacement.

B1: Fab of anti-TIM3 antibody #62 (Fab, V domains shown)
VH: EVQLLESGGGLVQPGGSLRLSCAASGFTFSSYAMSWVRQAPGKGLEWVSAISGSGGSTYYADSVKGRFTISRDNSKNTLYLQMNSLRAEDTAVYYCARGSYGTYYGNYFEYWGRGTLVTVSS
VL: QTVLTQPPSVSVAPGKTASISCGGDNIGGKSVHWYQQKPGQAPVLVIYYDSDRPSGIPQRFSGSNSGNTATLTIHRVEAGDEADYYCQVLDRRSDHWLFGGGTKLTVL
notes: Fab expressed in mammalian cells for co-crystallisation; also called clone 62
B1: binds.

Reference: US20220332818A1 (AstraZeneca / MedImmune, published 2022)
